Test results as given in paper PMC9812531 (Nature structural & molecular biology, 2021).
Read-outs that look alike come from different tables or passages of the source.

Tests used:
Assay in all cases: cryo-EM structure
[1] = target: the molecule itself
[2] = target: T1, human SPTLC2 (human, UniProt O15270 1-562, pyridoxal 5'-phosphate (PLP) in aldimine linkage to Lys379)
T1 sequence (looked up): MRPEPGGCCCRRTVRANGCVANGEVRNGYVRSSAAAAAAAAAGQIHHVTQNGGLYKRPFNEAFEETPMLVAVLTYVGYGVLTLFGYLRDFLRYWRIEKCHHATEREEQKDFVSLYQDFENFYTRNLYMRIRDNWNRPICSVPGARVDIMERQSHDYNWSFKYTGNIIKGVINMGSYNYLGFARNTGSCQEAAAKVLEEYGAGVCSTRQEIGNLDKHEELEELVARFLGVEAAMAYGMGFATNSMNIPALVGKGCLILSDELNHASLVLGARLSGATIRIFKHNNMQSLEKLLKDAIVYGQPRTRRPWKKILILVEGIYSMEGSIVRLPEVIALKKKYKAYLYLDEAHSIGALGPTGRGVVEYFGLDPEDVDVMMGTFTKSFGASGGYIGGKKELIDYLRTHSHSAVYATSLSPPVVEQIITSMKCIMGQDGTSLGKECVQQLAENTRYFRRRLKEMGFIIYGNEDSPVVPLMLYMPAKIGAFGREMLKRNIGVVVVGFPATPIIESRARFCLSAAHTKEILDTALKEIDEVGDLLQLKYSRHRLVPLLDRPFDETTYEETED

[3] = target: the molecule itself; remark: listed apart in the source

B1: human SPTLC1 (natural protein)
chain: MATATEQWVLVEMVQALYEAPAYHLILEGILILWIIRLLFSKTYKLQERSDLTVKEKEELIEEWQPEPLVPPVPKDHPALNYNIVSGPPSHKTVVNGKECINFASFNFLGLLDNPRVKAAALASLKKYGVGTCGPRGFYGTFDVHLDLEDRLAKFMKTEEAIIYSYGFATIASAIPAYSKRGDIVFVDRAACFAIQKGLQASRSDIKLFKHNDMADLERLLKEQEIEDQKNPRKARVTRRFIVVEGLYMNTGTICPLPELVKLKYKYKARIFLEESLSFGVLGEHGRGVTEHYGINIDDIDLISANMENALASIGGFCCGRSFVIDHQRLSGQGYCFSASLPPLLAAAAIEALNIMEENPGIFAVLKEKCGQIHKALQGISGLKVVGESLSPAFHLQLEESTGSREQDVRLLQEIVDQCMNRSIALTQARYLEKEEKCLPPPSIRVVVTVEQTEEELERAASTIKEVAQAVLL
[1]
  binding result: binds
[2]
  stoichiometry N: 1

B2: human SPT-ORMDL3 complex (SPTLC1-SPTLC2-ssSPTa-ORMDL3), one protomer (complex)
chain 1: MATATEQWVLVEMVQALYEAPAYHLILEGILILWIIRLLFSKTYKLQERSDLTVKEKEELIEEWQPEPLVPPVPKDHPALNYNIVSGPPSHKTVVNGKECINFASFNFLGLLDNPRVKAAALASLKKYGVGTCGPRGFYGTFDVHLDLEDRLAKFMKTEEAIIYSYGFATIASAIPAYSKRGDIVFVDRAACFAIQKGLQASRSDIKLFKHNDMADLERLLKEQEIEDQKNPRKARVTRRFIVVEGLYMNTGTICPLPELVKLKYKYKARIFLEESLSFGVLGEHGRGVTEHYGINIDDIDLISANMENALASIGGFCCGRSFVIDHQRLSGQGYCFSASLPPLLAAAAIEALNIMEENPGIFAVLKEKCGQIHKALQGISGLKVVGESLSPAFHLQLEESTGSREQDVRLLQEIVDQCMNRSIALTQARYLEKEEKCLPPPSIRVVVTVEQTEEELERAASTIKEVAQAVLL
chain 2: MRPEPGGCCCRRTVRANGCVANGEVRNGYVRSSAAAAAAAAAGQIHHVTQNGGLYKRPFNEAFEETPMLVAVLTYVGYGVLTLFGYLRDFLRYWRIEKCHHATEREEQKDFVSLYQDFENFYTRNLYMRIRDNWNRPICSVPGARVDIMERQSHDYNWSFKYTGNIIKGVINMGSYNYLGFARNTGSCQEAAAKVLEEYGAGVCSTRQEIGNLDKHEELEELVARFLGVEAAMAYGMGFATNSMNIPALVGKGCLILSDELNHASLVLGARLSGATIRIFKHNNMQSLEKLLKDAIVYGQPRTRRPWKKILILVEGIYSMEGSIVRLPEVIALKKKYKAYLYLDEAHSIGALGPTGRGVVEYFGLDPEDVDVMMGTFTKSFGASGGYIGGKKELIDYLRTHSHSAVYATSLSPPVVEQIITSMKCIMGQDGTSLGKECVQQLAENTRYFRRRLKEMGFIIYGNEDSPVVPLMLYMPAKIGAFGREMLKRNIGVVVVGFPATPIIESRARFCLSAAHTKEILDTALKEIDEVGDLLQLKYSRHRLVPLLDRPFDETTYEETED
chain 3: MAGMALARAWKQMSWFYYQYLLVTALYMLEPWERTVFNSMLVSIVGMALYTGYVFMPQHIMAILHYFEIVQ
chain 4: MNVGTAHSEVNPNTRVMNSRGIWLSYVLAIGLLHIVLLSIPFVSVPVVWTLTNLIHNMGMYIFLHTVKGTPFETPDQGKARLLTHWEQMDYGVQFTASRKFLTITPIVLYFLTSFYTKYDQIHFVLNTVSLMSVLIPKLPQLHGVRIFGINKY
modifications: pyridoxal 5'-phosphate (PLP) in aldimine linkage to Lys379
[1]
  stoichiometry N: 2

B3: human SPT complex (SPTLC1-SPTLC2-ssSPTa), one protomer (complex)
chain 1: MATATEQWVLVEMVQALYEAPAYHLILEGILILWIIRLLFSKTYKLQERSDLTVKEKEELIEEWQPEPLVPPVPKDHPALNYNIVSGPPSHKTVVNGKECINFASFNFLGLLDNPRVKAAALASLKKYGVGTCGPRGFYGTFDVHLDLEDRLAKFMKTEEAIIYSYGFATIASAIPAYSKRGDIVFVDRAACFAIQKGLQASRSDIKLFKHNDMADLERLLKEQEIEDQKNPRKARVTRRFIVVEGLYMNTGTICPLPELVKLKYKYKARIFLEESLSFGVLGEHGRGVTEHYGINIDDIDLISANMENALASIGGFCCGRSFVIDHQRLSGQGYCFSASLPPLLAAAAIEALNIMEENPGIFAVLKEKCGQIHKALQGISGLKVVGESLSPAFHLQLEESTGSREQDVRLLQEIVDQCMNRSIALTQARYLEKEEKCLPPPSIRVVVTVEQTEEELERAASTIKEVAQAVLL
chain 2: MRPEPGGCCCRRTVRANGCVANGEVRNGYVRSSAAAAAAAAAGQIHHVTQNGGLYKRPFNEAFEETPMLVAVLTYVGYGVLTLFGYLRDFLRYWRIEKCHHATEREEQKDFVSLYQDFENFYTRNLYMRIRDNWNRPICSVPGARVDIMERQSHDYNWSFKYTGNIIKGVINMGSYNYLGFARNTGSCQEAAAKVLEEYGAGVCSTRQEIGNLDKHEELEELVARFLGVEAAMAYGMGFATNSMNIPALVGKGCLILSDELNHASLVLGARLSGATIRIFKHNNMQSLEKLLKDAIVYGQPRTRRPWKKILILVEGIYSMEGSIVRLPEVIALKKKYKAYLYLDEAHSIGALGPTGRGVVEYFGLDPEDVDVMMGTFTKSFGASGGYIGGKKELIDYLRTHSHSAVYATSLSPPVVEQIITSMKCIMGQDGTSLGKECVQQLAENTRYFRRRLKEMGFIIYGNEDSPVVPLMLYMPAKIGAFGREMLKRNIGVVVVGFPATPIIESRARFCLSAAHTKEILDTALKEIDEVGDLLQLKYSRHRLVPLLDRPFDETTYEETED
chain 3: MAGMALARAWKQMSWFYYQYLLVTALYMLEPWERTVFNSMLVSIVGMALYTGYVFMPQHIMAILHYFEIVQ
modifications: pyridoxal 5'-phosphate (PLP) in aldimine linkage to Lys379
[3]
  stoichiometry N: 2

B4: human ssSPTa (natural protein)
chain: MAGMALARAWKQMSWFYYQYLLVTALYMLEPWERTVFNSMLVSIVGMALYTGYVFMPQHIMAILHYFEIVQ
[2]
  stoichiometry N: 1
